Data: article PMC11046469, “Leveraging a Phage-Encoded Noncanonical Amino Acid: A Novel Pathway to Potent and Selective Epigenetic Reader Protein Inhibitors” (ACS Central Science, 2024)

What follows are substances tested against T1, ENL YEATS domain (AviSUMO-ENL YEATS) (Homo sapiens, UniProt Q03111) (assay: Phage panning of BuK-containing 7-mer library against AviSUMO-ENL YEATS with Illumina NGS abundance). Conditions: sheet ENLR3: round 3 of panning against ENL YEATS; TAG = amber codon (BuK); 7-mer library positions V1-V7.
T1 construct: encoding ENL YEATS (aa 1−148) was cloned in pET28a-; made in house; host or cells: E. coli BL21(DE3pLysS), co-expressed with BirA (pBirAcm)
T1 sequence (Q03111 1-148): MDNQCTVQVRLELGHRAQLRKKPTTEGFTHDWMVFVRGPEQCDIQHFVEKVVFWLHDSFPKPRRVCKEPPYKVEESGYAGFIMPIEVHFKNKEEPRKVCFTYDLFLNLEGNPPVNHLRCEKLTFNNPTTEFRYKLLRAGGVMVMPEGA
Description: We utilized a previously established amber-obligate 7-mer phage display library to develop a phage display library enriched with BuK-containing 7-mer peptides. For detailed characterizations, including analysis of amber codon percentages, NNK trinucleotide analysis, and amino acid distribution at each position within the library, please refer to the work of Tharp et al.[10] Furthermore, the comprehensive raw NGS data for the amber-obligate 7-mer phage library can be found in the NCBI’s Sequence Read Archive, under the accession ID PRJNA606283. To produce the BuK-containing 7-mer phage library, the phages were produced in the presence of 5 mM BuK using TOP10 cells harboring the following three plasmids: (1) pADL-gIII, which contains the 7-mer amber-obligate peptide-coding DNA library positioned at the N-terminus of M13 pIII gene; (2) pCDF-BuKRS, which encodes BuKRS and its cognate tRNA^Pyl for the genetic incorporation of BuK at amber codons in the 7-mer library; and (3) M13KO7TAA, a helper phage plasmid engineered to have a TAA mutation at pIII so that its lack of a functional pIII allows an efficient multivalent display of the 7-mer library. The ENL YEATS domain containing an N-terminal AviSUMO-Tag was recombinantly expressed in E. coli together with BirA, a biotin ligase, for site-specific biotinylation at the AviTag. The biotinylated AviSUMO-ENL YEATS was immobilized on streptavidin-coated magnetic beads for panning with the BuK-containing phages. […] Phage libraries collected from the first and third rounds of selection were sequenced using Illumina next generation sequencing (NGS) and all sequenced data are available through the NCBI SRA database (Project PRJNA1041845). To prevent possible sequencing errors from affecting conclusions, sequences were filtered using previously published paired-end processing,[10] where any sequences containing more than one mismatch in the nonlibrary region or any mismatch in the library region were discarded. The NGS data provided DNA sequences encompassing both the library and nonlibrary regions. In our analysis, we included data from the nonlibrary region as a stringent quality control measure to filter out low-quality data. For our analysis, we utilized 51 nucleotides from the NGS output, with 21 nucleotides encoding the library region and an additional 30 nucleotides for the nonlibrary region. […] Among all the sequences, only 85 of them contained more than 100 copies (blue area), while the remaining sequences all had low abundances (<10^2 copies, dark and light gray areas), which constituted 85.2% of the first round population. After three panning rounds, the selection converged to two highly enriched sequences: YDVYCYX (ENL-S1) and WWIIEXG (ENL-S2, X denotes BuK). Out of 551 different unique sequences collected from the third round, ENL-S1 and ENL-S2 represented 85% of the entire library (Figure 2A and Figures S6–S8). Both peptide sequences corresponded to their own unique DNA sequence, rather than there being varying codons encoding the same amino acids (Figure S7). […] Two motifs were found in the majority of sequences with high abundance (greater than 0.1%) (Figure S6). A Y(C/L)Y pattern was identified in the residues adjacent to BuK in four of the eight top sequences. Also, an H(L/Y)(T/V)LFXG (X denotes BuK) motif was observed, albeit at lower abundances, in two of the top sequences. In the initial round of selection, we observed that only a small percentage of phages were eluted, which aligns with typical outcomes in phage selection experiments since only a low copy number of phages can bind to the target.[10],[45] With each successive round of selection, we noted a gradual increase in the percentage of phages eluted. This incremental, rather than sharp, increase was attributed to the intensification of selection pressures, such as the application of more stringent washing protocols. We aimed for the incremental increase to retain potent clones with low copy numbers from the previous selection cycle. […]

| Substance | n (number of NGS reads of the unique amino acid sequence) | percent (share of sequence reads) [%] |
| --- | --- | --- |
| FKCTAGNGC | 1 | 0.0009106 |
| WFILYTAGD | 25 | 0.02277 |
| WWIIEYG | 29 | 0.02641 |
| YAIYCYTAG | 7 | 0.006374 |
| CHMLCTAGD | 56 | 0.05099 |
| YVGPWTAGG | 41 | 0.03734 |
| HCVLFTAGG | 1 | 0.0009106 |
| WLIIETAGD | 2 | 0.001821 |
| CFFTAGIMC | 1 | 0.0009106 |
| CTYVITAGV | 1 | 0.0009106 |
| HTAGSFCRL | 1 | 0.0009106 |
| HPIYCYTAG | 1 | 0.0009106 |
| CLPWTAGSS | 7 | 0.006374 |
| TAGTLWNVG | 2 | 0.001821 |
| YDVHCYTAG | 5 | 0.004553 |
| WWIIETAGW | 27 | 0.02459 |
| DMFRSTAGI | 1 | 0.0009106 |
| TAGWIIETAGG | 6 | 0.005464 |
| WWIIEWG | 3 | 0.002732 |
| CYDLCYG | 1 | 0.0009106 |
| CWIIETAGG | 22 | 0.02003 |
| WWIIKTAGG | 9 | 0.008196 |
| HCGPRTAGD | 10 | 0.009106 |

| Substance | n (number of NGS reads of the unique amino acid sequence) | percent (share of sequence reads) [%] |
| --- | --- | --- |
| YDVYCYQ | 15 | 0.01366 |
| HMTLFTAGG | 1 | 0.0009106 |
| QRGPRTAGD | 2 | 0.001821 |
| DDVYCYTAG | 7 | 0.006374 |
| YDVYCNTAG | 3 | 0.002732 |
| WWIIETAGE | 10 | 0.009106 |
| LFIALPTAG | 1 | 0.0009106 |
| IRCHPWTAG | 1 | 0.0009106 |
| WTAGIIETAGG | 4 | 0.003642 |
| QYGPRTAGD | 2 | 0.001821 |
| HDVYCYTAG | 13 | 0.01184 |
| WWIIETAGG | 33339 | 30.359 |
| YEVYCYTAG | 2 | 0.001821 |
| RWIIETAGG | 7 | 0.006374 |
| LWIFTPTAG | 4 | 0.003642 |
| WWIITAGTAGG | 19 | 0.0173 |
| HHVLFTAGG | 1 | 0.0009106 |
| YDDYCYTAG | 2 | 0.001821 |
| QCGPLTAGD | 10 | 0.009106 |
| HFTLFTAGG | 2 | 0.001821 |
| WWIVETAGG | 6 | 0.005464 |
| QCGPQTAGD | 2 | 0.001821 |
| HVIYCYTAG | 2 | 0.001821 |

Same assay, conditions: sheet ENLR3: round 3 of selection against ENL YEATS; TAG = amber codon (BuK)

| Substance | n (number of NGS reads of the 7-mer sequence V1-V7) | percent (share of NGS reads of the 7-mer sequence V1-V7) [%] |
| --- | --- | --- |
| WWFIETAGG | 1 | 0.0009106 |
| YLYTAGVHC | 1 | 0.0009106 |
| SWSITFTAG | 1 | 0.0009106 |
| WFIYTAGGC | 1 | 0.0009106 |
| STAGTEIYC | 1 | 0.0009106 |
| TAGSGVASC | 1 | 0.0009106 |
| WWIFETAGG | 1 | 0.0009106 |
| QCGPRTAGG | 1 | 0.0009106 |
| RWVAGPTAG | 1 | 0.0009106 |
| NTITAGISL | 1 | 0.0009106 |
| STVYCYTAG | 1 | 0.0009106 |
| YAVYCYTAG | 1 | 0.0009106 |
| NTAGNIGLY | 1 | 0.0009106 |
| QCGPRTAGE | 1 | 0.0009106 |
| NYVLFTAGG | 1 | 0.0009106 |
| QCGPPTAGD | 1 | 0.0009106 |
| YLYLVPC | 1 | 0.0009106 |
| YDGPWTAGG | 1 | 0.0009106 |
| TAGSFLYSF | 1 | 0.0009106 |
| WCFMVFL | 1 | 0.0009106 |
| TAGCGPRYD | 1 | 0.0009106 |
| TAGKDQLWN | 1 | 0.0009106 |
